The record followed here is article PMC2913173 (Journal of molecular biology, 2009).

Common to all, as to assay: flow cytometry on cells
(A flow cytometer gives signals particle by particle.)

The target in test [1] is T1, Bak(72–89)–eCPX fusion displayed on E. coli (UniProt Q16611 72-89).
T1 chain (looked up): GQVGRQLAIIGDDINRRY

The target in test [2] is T2, Bak(72–89) R88E–eCPX fusion displayed on E. coli (UniProt Q16611 72-89, R88E).
T2 chain (looked up): GQVGRQLAIIGDDINREY

The target of test [3] is T3, Bak(72–89) Y89A–eCPX fusion displayed on E. coli (UniProt Q16611 72-89, Y89A).
T3 chain (looked up): GQVGRQLAIIGDDINRRA

In test [4] the target is T4, Bak(72–87)–eCPX fusion displayed on E. coli (UniProt Q16611 72-87).
T4 chain (looked up): GQVGRQLAIIGDDINR

Test [5] addresses T5, Bak(72–89) R88Q–eCPX fusion displayed on E. coli (UniProt Q16611 72-89, R88Q).
T5 chain (looked up): GQVGRQLAIIGDDINRQY

For test [6], the target named is T6, Bak(72–88)–eCPX fusion displayed on E. coli (UniProt Q16611 72-88).
T6 chain (looked up): GQVGRQLAIIGDDINRR

Test [7] deals with T7, Bak(72–89) R88A–eCPX fusion displayed on E. coli (UniProt Q16611 72-89, R88A).
T7 chain (looked up): GQVGRQLAIIGDDINRAY

B1: biotinylated Bcl-2 chimera (isoform 2): residues 1–34 of Bcl-2, residues 35–50 of Bcl-xL, residues 92–207 of Bcl-2 (other, UniProt P10415 1-34, looked up)
chain: MAHAGRTGYDNREIVMKYIHYKLSQRGYEWDAGDTEAPEGTESEMETPSAVVHLTLRQAGDDFSRRYRRDFAEMSSQLHLTPFTARGRFATVVEELFRDGVNWGRIVAFFEFGGVMCVESVNREMSPLVDNIALWMTEYLNRHLHTWIQDNGGWDAFVELYGPSMR
modifications: biotin on the lysine of the biotin acceptor peptide (…)
In the case of B1, the median fluorescence was 19.1 AU in test [1]; 8.4 AU in test [2]; 11.9 AU in test [3]; 2.1 AU in test [4]; 11.1 AU in test [5]; 8.3 AU in test [6]. Also, the median fluorescence in test [7] was 24.6 AU.
